One test concerns the target T1, CaM-agarose (Sigma) (UniProt P62157 1-149, coupled to agarose).
T1 construct: calmodulin coupled to agarose, bought from Sigma; Commercial reagent; also called calmodulin; source: bought: Sigma (CaM-agarose)
Description: pull-down; competition: purified GST-C1A1 fragment on CaM-agarose with 200 μM peptide (CaMBD peptide, scrambled peptide or CALP2). The settings on record: both partners purified.

Another test concerns the target T2, pure CaM (Sigma) (UniProt P62157 1-149).
T2 construct: pure calmodulin bought from Sigma; also called calmodulin; source: bought: Sigma
Description: native gel or EMSA; 600 nM CaM incubated with different molar ratios of peptide; 10 mM Na-HEPES pH 7.2, 2 mM Ca2+, room temperature, 1 h; 12% non-denaturing PAGE with 2 mM Ca2+; silver staining (read-out: CaM band intensity, no mobility shift). The settings on record: both partners purified. On the technique in general: A gel shift assay detects complexes by their altered migration in electrophoresis.

B1: CaMBD peptide (peptide)
peptide: LWYLRKVDQRSTIVYPN
notes: also called WT peptide; the 17AA; source: synthetic peptide (Biomatik)
Consider B1, for which the binding result in the test with CaM-agarose (Sigma) and with pure CaM (Sigma) was “binds” in each case.

For the origin of these results see article PMC5362816, “Calmodulin is responsible for Ca^2+-dependent regulation of TRPA1 Channels” (Scientific Reports, 2017).
